# Experimental data reported in paper PMC6451127.
# Substrate: CNc1ncnc2c1ncn2[C@@H]1O[C@H](COP(=O)(O)O)[C@@H](O)[C@H]1O
# Assay: purified protein
# Format: biochemical, Arabidopsis thaliana
# Details: 20 mM potassium phosphate pH 7.2, 25 °C
Protein,Km (250 nM enzyme) [µM],Km [µM]
AtMAPDA (Arabidopsis thaliana) (protein) MEWIQSLPKIELHAHLNGSIRDSTLLELARVLGEKGVIVFADVEHVIQKNDRSLVEVFKLFDLIHKLTTDHKTVTRITREVVEDFALENVVYLELRTTPKRSDSIGMSKRSYMEAVIQGLRSVSEVDIDFVTASDSQKLHNAGDGIGRKKIYVRLLLSIDRRETTESAMETVKLALEMRDVGVVGIDLSGNPLVGEWSTFLPALQYAKDNDLHITLHCGEVPNPKEIQAMLDFKPHRIGHACFFKDEDWTKLKSFRIPVEICLTSNIVTKSISSIDIHHFADLYNAKHPLILCTDDFGVFSTSLSNEYALAVRSLGLSKSETFALARAAIDATFAEDEVKQQLRFIFDSASPEHV,4.14,
AtMAPDA (Arabidopsis thaliana; T97A) (protein) MEWIQSLPKIELHAHLNGSIRDSTLLELARVLGEKGVIVFADVEHVIQKNDRSLVEVFKLFDLIHKLTTDHKTVTRITREVVEDFALENVVYLELRATPKRSDSIGMSKRSYMEAVIQGLRSVSEVDIDFVTASDSQKLHNAGDGIGRKKIYVRLLLSIDRRETTESAMETVKLALEMRDVGVVGIDLSGNPLVGEWSTFLPALQYAKDNDLHITLHCGEVPNPKEIQAMLDFKPHRIGHACFFKDEDWTKLKSFRIPVEICLTSNIVTKSISSIDIHHFADLYNAKHPLILCTDDFGVFSTSLSNEYALAVRSLGLSKSETFALARAAIDATFAEDEVKQQLRFIFDSASPEHV,,8.94
AtMAPDA (Arabidopsis thaliana; T98A) (protein) MEWIQSLPKIELHAHLNGSIRDSTLLELARVLGEKGVIVFADVEHVIQKNDRSLVEVFKLFDLIHKLTTDHKTVTRITREVVEDFALENVVYLELRTAPKRSDSIGMSKRSYMEAVIQGLRSVSEVDIDFVTASDSQKLHNAGDGIGRKKIYVRLLLSIDRRETTESAMETVKLALEMRDVGVVGIDLSGNPLVGEWSTFLPALQYAKDNDLHITLHCGEVPNPKEIQAMLDFKPHRIGHACFFKDEDWTKLKSFRIPVEICLTSNIVTKSISSIDIHHFADLYNAKHPLILCTDDFGVFSTSLSNEYALAVRSLGLSKSETFALARAAIDATFAEDEVKQQLRFIFDSASPEHV,,4.52
AtMAPDA (Arabidopsis thaliana; N17A) (protein) MEWIQSLPKIELHAHLAGSIRDSTLLELARVLGEKGVIVFADVEHVIQKNDRSLVEVFKLFDLIHKLTTDHKTVTRITREVVEDFALENVVYLELRTTPKRSDSIGMSKRSYMEAVIQGLRSVSEVDIDFVTASDSQKLHNAGDGIGRKKIYVRLLLSIDRRETTESAMETVKLALEMRDVGVVGIDLSGNPLVGEWSTFLPALQYAKDNDLHITLHCGEVPNPKEIQAMLDFKPHRIGHACFFKDEDWTKLKSFRIPVEICLTSNIVTKSISSIDIHHFADLYNAKHPLILCTDDFGVFSTSLSNEYALAVRSLGLSKSETFALARAAIDATFAEDEVKQQLRFIFDSASPEHV,,7.12
AtMAPDA (Arabidopsis thaliana; K100A) (protein) MEWIQSLPKIELHAHLNGSIRDSTLLELARVLGEKGVIVFADVEHVIQKNDRSLVEVFKLFDLIHKLTTDHKTVTRITREVVEDFALENVVYLELRTTPARSDSIGMSKRSYMEAVIQGLRSVSEVDIDFVTASDSQKLHNAGDGIGRKKIYVRLLLSIDRRETTESAMETVKLALEMRDVGVVGIDLSGNPLVGEWSTFLPALQYAKDNDLHITLHCGEVPNPKEIQAMLDFKPHRIGHACFFKDEDWTKLKSFRIPVEICLTSNIVTKSISSIDIHHFADLYNAKHPLILCTDDFGVFSTSLSNEYALAVRSLGLSKSETFALARAAIDATFAEDEVKQQLRFIFDSASPEHV,,6.89
AtMAPDA (Arabidopsis thaliana; H65A) (protein) MEWIQSLPKIELHAHLNGSIRDSTLLELARVLGEKGVIVFADVEHVIQKNDRSLVEVFKLFDLIAKLTTDHKTVTRITREVVEDFALENVVYLELRTTPKRSDSIGMSKRSYMEAVIQGLRSVSEVDIDFVTASDSQKLHNAGDGIGRKKIYVRLLLSIDRRETTESAMETVKLALEMRDVGVVGIDLSGNPLVGEWSTFLPALQYAKDNDLHITLHCGEVPNPKEIQAMLDFKPHRIGHACFFKDEDWTKLKSFRIPVEICLTSNIVTKSISSIDIHHFADLYNAKHPLILCTDDFGVFSTSLSNEYALAVRSLGLSKSETFALARAAIDATFAEDEVKQQLRFIFDSASPEHV,,5.51
